Consider five substances from article PMC11098746.

In assay [1] the target is Pf34 bait (P. falciparum Pf34 ectodomain, human Fc-tagged dimeric bait) (P. falciparum).
The target is the same in assay [2]. The experiment in a line: SPR. (In general: SPR reads the build-up and loss of mass on a sensor chip optically.)
In assay [3] the target is Pf34 bait (Pf34 ectodomain with CD4d3+4, human Fc and C-tag) (Plasmodium falciparum). The experiment in a line: SPR.
In the next assay the target is Izumo (Mus musculus) (UniProt Q9D9J7). To be noted: cited from earlier work.
Chain of Izumo (Mus musculus) (Q9D9J7 22-319): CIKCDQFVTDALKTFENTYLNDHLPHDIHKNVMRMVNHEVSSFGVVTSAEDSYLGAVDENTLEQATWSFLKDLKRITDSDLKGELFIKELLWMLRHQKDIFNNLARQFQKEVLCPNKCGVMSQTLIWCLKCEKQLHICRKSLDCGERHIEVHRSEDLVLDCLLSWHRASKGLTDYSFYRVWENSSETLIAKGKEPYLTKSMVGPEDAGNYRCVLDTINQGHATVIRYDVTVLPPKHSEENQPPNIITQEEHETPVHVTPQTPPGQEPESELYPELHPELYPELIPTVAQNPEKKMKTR
Assay [4] addresses PfRON6 C-terminal bait (PfRON6 residues 537-950 with CD4d3+4, human Fc and C-tag) (Plasmodium falciparum). The experiment in a line: SPR.

Several values for one entry are separate records, joined by “and”; a condition that tells them apart may be missing. Equal values may be shown once. A value given as a limit tells only on which side of the number the result lay.

Chain of Juno (Q9EQF4 20-222): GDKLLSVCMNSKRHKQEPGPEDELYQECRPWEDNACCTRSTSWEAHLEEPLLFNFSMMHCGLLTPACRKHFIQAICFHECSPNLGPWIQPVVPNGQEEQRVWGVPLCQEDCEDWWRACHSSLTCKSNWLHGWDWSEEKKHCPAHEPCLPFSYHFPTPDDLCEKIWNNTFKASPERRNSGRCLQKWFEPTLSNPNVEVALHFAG

In the case of “FGFR4 prey (human fibroblast growth factor receptor 4 ectodomain, pentameric 5xNanoLuc-tagged prey) (from UniProt P22455 22-369)”, in assay [1], the inhibition of NF54 sporozoite invasion of primary human hepatocytes (ISI assay) by LD1 mAb, up to 25 µg/mL worked out at 20% and the inhibition of NF54 sporozoite invasion of primary human hepatocytes (ISI assay) by anti-FGFR4 rabbit pAbs, up to 2 mg/mL was 20%.

In the case of “FGFR4-CD4-Bio-His (purified monomeric FGFR4 ectodomain) (from UniProt P22455 22-369) (receptor)”, in assay [2], the Kd was 46 µM and 40 µM; the t1/2 was < 1 s and 0.4 s.

As to “FGFR4-CD4-Bio-His (purified monomeric human FGFR4 ectodomain) (from UniProt P22455 22-369) (receptor)”, in assay [3], the Kd was 47 µM and 14 µM and 31 µM; the kon is 16000 M⁻¹ s⁻¹ and 44000 M⁻¹ s⁻¹ and 30000 M⁻¹ s⁻¹.

Turning to Juno (from UniProt Q9EQF4), the Kd with Izumo (Mus musculus) is 12 µM.

In the case of “Pf34-CD4-Bio-His (purified monomeric Pf34) (natural protein)”, in assay [4], the Kd is 2900 nM, the koff came to 0.0015 s⁻¹ and the kon turned out to be 520 M⁻¹ s⁻¹.

A word on the Kd: it is the constant that tells how readily two partners part at equilibrium. One may read the kon as the second-order rate constant of association. The low end stands for slower complex formation, the high end for faster complex formation. For orientation: koff means the rate constant with which the complex falls apart.
